Reference: patent US20230302104

B1: purified human neutrophil elastase (ELA2) (protein)
chain: IVGGRRARPHAWPFMVSLQLRGGHFCGATLIAPNFVMSAAHCVANVNVRAVRVVLGAHNLSRREPTRQVFAVQRIFENGYDPVNLLNDIVILQLNGSATINANVQVAQLPAQGRRLGNGVQCLAMGWGLLGRNRGIASVLQELNVTVVTSLCRRSNVCTLVRGRQAGVCFGDSGSPLVCNGLIHGIASFVRGGCASGLYPDAFAPVAQFVNWIDSIIQ
B2: TMPRSS2 recombinant protein (creative biomart) (protein)
chain: WKFMGSKCSNSGIECDSSGTCINPSNWCDGVSHCPGGEDENRCVRLYGPNFILQVYSSQRKSWHPVCQDDWNENYGRAACRDMGYKNNFYSSQGIVDDSGSTSFMKLNTSAGNVDIYKKLYHSDACSSKAVVSLRCIACGVNLNSSRQSRIVGGESALPGAWPWQVSLHVQNVHVCGGSIITPEWIVTAAHCVEKPLNNPWHWTAFAGILRQSFMFYGAGYQVEKVISHPNYDSKTKNNDIALMKLQKPLTFNDLVKPVCLPNPGMMLQPEQLCWISGWGATEEKGKTSEVLNAAKVLLIETQRCNSRYVYDNLITPAMICAGFLQGNVDSCQGDSGGPLVTSKNNIWWLIGDTSWGSGCAKAYRPGVYGNVMVFTDWIYRQMRADG

Assays:
[1] = molecular target: rhAAT (recombinant alpha1-antitrypsin, preparations not specified per panel)
[2] = molecular target: AAT (alpha1-antitrypsin; preparation not stated in Example 15), P01009
Sequence of AAT (alpha1-antitrypsin; preparation not stated in Example 15), P01009 (P01009 whole entry, looked up): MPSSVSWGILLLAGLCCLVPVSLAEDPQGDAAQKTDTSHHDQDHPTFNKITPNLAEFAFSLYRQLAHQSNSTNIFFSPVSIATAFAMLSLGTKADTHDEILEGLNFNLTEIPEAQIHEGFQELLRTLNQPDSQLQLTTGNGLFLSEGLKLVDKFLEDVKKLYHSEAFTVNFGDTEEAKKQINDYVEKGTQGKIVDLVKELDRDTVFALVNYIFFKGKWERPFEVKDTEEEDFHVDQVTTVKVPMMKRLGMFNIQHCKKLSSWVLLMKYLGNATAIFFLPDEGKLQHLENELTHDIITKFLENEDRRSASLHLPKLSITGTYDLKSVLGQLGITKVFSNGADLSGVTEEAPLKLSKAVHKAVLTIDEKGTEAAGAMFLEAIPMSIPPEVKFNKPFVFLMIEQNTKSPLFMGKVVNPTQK

| Protein | neutrophil elastase protease activity, MeOSuc-AAPV-pNA substrate assay (Vmax, % of untreated); AAT at 1 nM and 10 nM [1] | TMPRSS2 protease activity (cleavage of Boc-QAR-AMC peptide, fluorescence, Vmax) [2] |
| --- | --- | --- |
| B1 | AAT and rhAAT inhibits neutrophil elastase protease activity |  |
| B2 |  | AAT inhibits TMPRSS2 protease activity |
